target: BVDV NS5B-His recombinant protein (Bovine viral diarrhea virus 1, strain …, UniProt P19711); experiment: ELISA
Sequence (P19711 whole entry, looked up): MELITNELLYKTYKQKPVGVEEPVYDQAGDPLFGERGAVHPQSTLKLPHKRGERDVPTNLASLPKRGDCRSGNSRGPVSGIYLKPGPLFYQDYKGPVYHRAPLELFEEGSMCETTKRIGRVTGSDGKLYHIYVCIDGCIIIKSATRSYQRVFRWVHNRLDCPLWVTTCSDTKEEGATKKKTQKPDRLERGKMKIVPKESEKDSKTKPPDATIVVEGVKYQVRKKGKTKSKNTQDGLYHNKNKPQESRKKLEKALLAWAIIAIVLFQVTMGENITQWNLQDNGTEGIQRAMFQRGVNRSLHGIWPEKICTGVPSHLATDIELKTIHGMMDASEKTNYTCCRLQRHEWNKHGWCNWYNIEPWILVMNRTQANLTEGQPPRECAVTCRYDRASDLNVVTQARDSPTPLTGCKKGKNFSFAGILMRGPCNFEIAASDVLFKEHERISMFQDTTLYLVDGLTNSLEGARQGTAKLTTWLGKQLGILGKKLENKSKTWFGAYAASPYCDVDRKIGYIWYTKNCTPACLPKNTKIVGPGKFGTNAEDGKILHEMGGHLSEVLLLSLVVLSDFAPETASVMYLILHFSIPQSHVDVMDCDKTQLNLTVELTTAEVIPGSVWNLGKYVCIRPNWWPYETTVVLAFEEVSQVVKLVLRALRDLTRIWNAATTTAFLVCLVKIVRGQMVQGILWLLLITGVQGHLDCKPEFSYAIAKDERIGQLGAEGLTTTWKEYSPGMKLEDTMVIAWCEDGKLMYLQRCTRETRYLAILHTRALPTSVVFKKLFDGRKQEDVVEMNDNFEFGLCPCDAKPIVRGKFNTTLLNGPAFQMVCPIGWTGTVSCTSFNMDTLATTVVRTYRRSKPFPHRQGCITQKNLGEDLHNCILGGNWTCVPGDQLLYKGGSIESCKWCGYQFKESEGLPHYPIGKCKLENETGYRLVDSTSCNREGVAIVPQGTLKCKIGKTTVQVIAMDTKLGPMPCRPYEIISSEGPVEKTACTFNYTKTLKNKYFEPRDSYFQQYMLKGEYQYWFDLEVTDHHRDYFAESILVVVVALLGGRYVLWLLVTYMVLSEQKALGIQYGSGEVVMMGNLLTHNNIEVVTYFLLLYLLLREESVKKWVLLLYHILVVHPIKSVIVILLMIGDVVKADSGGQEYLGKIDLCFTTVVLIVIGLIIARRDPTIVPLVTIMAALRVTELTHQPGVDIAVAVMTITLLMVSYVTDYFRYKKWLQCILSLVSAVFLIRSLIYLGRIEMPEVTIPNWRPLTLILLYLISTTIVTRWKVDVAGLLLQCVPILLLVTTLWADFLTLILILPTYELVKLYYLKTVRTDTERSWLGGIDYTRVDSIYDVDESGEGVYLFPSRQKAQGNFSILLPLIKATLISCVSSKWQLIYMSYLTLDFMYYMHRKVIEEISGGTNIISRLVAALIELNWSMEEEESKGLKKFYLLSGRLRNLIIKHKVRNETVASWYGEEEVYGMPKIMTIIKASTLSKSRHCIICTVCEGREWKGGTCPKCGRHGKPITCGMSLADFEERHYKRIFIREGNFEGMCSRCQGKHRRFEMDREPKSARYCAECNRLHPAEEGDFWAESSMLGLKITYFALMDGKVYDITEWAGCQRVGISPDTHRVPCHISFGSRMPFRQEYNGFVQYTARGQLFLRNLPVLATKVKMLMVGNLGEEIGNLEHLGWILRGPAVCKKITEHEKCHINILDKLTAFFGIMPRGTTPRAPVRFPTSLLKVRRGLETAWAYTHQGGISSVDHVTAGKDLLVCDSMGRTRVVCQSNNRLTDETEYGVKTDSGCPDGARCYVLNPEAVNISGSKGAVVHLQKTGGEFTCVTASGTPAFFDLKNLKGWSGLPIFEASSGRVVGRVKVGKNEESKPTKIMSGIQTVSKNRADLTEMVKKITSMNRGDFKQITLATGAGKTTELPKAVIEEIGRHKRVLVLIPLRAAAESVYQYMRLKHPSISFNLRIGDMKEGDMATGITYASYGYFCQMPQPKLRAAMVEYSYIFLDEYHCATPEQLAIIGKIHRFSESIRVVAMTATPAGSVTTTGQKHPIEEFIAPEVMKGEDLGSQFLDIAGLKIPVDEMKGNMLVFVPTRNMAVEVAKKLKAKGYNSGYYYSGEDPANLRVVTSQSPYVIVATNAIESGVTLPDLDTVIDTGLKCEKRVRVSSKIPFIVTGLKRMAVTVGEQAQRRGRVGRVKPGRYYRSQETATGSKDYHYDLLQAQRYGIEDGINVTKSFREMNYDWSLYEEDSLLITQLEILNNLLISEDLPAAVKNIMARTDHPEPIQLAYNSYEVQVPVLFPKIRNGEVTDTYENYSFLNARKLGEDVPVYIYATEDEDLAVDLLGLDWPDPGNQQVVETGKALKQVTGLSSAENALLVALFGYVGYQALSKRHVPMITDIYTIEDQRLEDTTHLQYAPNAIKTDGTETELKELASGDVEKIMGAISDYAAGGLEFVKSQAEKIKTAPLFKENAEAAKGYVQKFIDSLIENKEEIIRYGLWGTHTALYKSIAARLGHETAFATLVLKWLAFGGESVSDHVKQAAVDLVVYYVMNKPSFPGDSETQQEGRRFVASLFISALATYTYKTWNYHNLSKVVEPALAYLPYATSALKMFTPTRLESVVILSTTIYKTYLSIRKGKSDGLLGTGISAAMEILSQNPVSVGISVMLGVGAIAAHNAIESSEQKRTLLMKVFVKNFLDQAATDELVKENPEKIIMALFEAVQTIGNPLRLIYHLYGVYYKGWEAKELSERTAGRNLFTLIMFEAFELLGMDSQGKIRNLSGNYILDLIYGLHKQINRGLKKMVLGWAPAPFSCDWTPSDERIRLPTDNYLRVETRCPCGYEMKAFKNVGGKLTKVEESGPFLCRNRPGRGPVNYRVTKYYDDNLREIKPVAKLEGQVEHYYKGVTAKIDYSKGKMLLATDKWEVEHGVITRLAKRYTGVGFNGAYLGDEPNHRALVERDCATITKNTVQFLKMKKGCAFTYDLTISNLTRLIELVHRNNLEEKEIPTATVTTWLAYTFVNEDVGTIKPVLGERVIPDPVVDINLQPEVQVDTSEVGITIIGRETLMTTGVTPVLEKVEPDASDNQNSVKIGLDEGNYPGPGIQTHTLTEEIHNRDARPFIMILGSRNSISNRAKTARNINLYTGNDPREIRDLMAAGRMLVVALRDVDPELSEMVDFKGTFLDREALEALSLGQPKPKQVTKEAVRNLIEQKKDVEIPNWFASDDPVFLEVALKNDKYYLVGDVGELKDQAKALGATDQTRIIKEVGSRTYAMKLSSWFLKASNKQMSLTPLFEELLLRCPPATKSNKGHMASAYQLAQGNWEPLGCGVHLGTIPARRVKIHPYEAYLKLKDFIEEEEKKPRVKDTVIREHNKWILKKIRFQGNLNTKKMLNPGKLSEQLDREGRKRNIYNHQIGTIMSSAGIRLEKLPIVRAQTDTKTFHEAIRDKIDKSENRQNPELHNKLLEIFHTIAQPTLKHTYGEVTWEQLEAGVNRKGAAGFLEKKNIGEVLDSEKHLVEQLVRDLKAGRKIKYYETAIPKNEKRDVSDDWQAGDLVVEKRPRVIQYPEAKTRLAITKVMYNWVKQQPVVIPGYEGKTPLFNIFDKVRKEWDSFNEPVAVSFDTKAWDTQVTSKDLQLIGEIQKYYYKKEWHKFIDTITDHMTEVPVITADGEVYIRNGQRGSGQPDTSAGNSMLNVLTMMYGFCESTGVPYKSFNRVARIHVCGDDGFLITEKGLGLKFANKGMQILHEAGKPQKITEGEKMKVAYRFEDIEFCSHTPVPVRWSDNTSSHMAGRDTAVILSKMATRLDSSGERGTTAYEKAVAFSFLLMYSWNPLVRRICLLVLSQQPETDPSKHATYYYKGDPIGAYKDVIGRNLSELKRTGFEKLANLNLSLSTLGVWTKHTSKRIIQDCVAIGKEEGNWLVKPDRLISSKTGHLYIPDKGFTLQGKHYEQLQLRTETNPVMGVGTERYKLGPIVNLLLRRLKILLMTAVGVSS

Row | Binder | binding result
1 | Nb45 (VHH) VHH: QVQLQESGGGSVQSGGSLRLSCARSGYARRIYSMAWFRQAPGKEREGVAILNDDGNPTYAGSVKGRFTISRDNAKNTLYLQMNSLKPEDTAMYYCAADLTAQSYTRDRLLTSAYNVWGQGTQVTVSS | binds
2 | Nb100 (VHH) VHH: QVQLQESGGGSVQSGGSLRLSCAASGYRRYCMAWFRQAPGKEREGVASIRSDGSTRYADSVKGRFSISQDNAENTLYLQMNSLKPEDTAMYYCAADSSAGCYSVHNSLLARSTYNYWGQGTQVTVSS | binds
3 | Nb54 (VHH) VHH: QVQLQESGGGSVQSGGSLRLSCAASTYTYNNYCMGWFRQAPGKEREGVASIERFGHTIFADSVKGRFTISRDNTKNTLYLQMNSLKPEDTAMYYCATERPSAYCSDSFTFNYWGQGTQVTVSS | binds
4 | Nb20 (VHH) VHH: QVQLQESGGGSVQSGGSLRLSCRAVDGSGACMGWFRQAPGKEREGVAVIARDGSTNYAHSVRGRFTISQDNAKNTLYLQMNGLKPDDTAMYYCAAGPRFRSCSTSPSFYTSWGQGTQVTVSS | binds
5 | Nb114 (VHH) VHH: QVQLQESGGGSVQSGGSLRLSCAASGYTYQTYSMGWFRQAPGKEREGVAAIDDDGSTMYADSVKGRFTISQDSAKNTLYLQMNSLKPEDTAVYYCAASGFRGLLEFMRNIWVDYWGQGTQVTVSS | binds
6 | Nb5 (VHH) VHH: QVQLQESGGGSVQSGGSLRLSCAASTYTYSSGCMGWFRQAPGKEREGVATIDSDGSTTYADSVKGRFTISQDNAKNTLQLQMNSLKPEDTAMYYCAADDFWICSIIGRPGVADFRYWGQGTQVTVSS | binds
7 | Nb60 (VHH) VHH: QVQLQESGGGSVQPGGSLRLSCAASGFAVSSVAMSWVRQAPGKGLEWVSSINRYGFRVYADSVTGRFTISRDNAKNTLYLQLNSLKTEDTAMYYCSKDDDANWLNGRRGQGTQVTVSS | binds
